In paper PMC9270392, “An ancestral function of strigolactones as symbiotic rhizosphere signals” (Nature Communications, 2022):

Substrate: CC1=CC(O/C=C(C)\C=C\C2=C(C)CCCC2(C)C)OC1=O
Assay: LC-MS/MS of BSB formed by yeast microsomes, Michaelis-Menten fit
Assay type: biochemical, Marchantia paleacea
Details: rac-CL 0.25 to 33 μM, NADPH 500 μM, 28 °C, 10 min, microsomes of WAT11 yeast, overall two-step conversion CL to BSB via CLA

B1: MpaMAX1 (Marchantia paleacea subsp. diptera) (protein)
chain: MITSMEGWTGVGALGSLVFMVVIMVYYFYPTWKVRHIPVPPYTWFLGHIPLLTKHQALCWTMLAKDYGPMYRFHVGRQPMVMVTDAELCRQVGLKLFKQVPNRSNPAMIEGSSVLKKALFFSRDEQWSGMKSILQPLFHSDKMNNYTPIMTQIVDELLERLRSVKEGEDVNISRLFQRLTLDVIGEVAFGIKFGLVLETPGPDEWLVQTTVKSIDALRMDAGAGVPLSTIVGTFFPILQKPFRSLLRMIPGTPEWVADGSDHALKLRLRQIQQEREELMRRNGSVSRVDSLSLLLNSSKLNKQNGKLLTQDYIGALTYELTLVGSETSSVTLSMLTYLLALHPECERKMLAEIDAFGPRDLPITTEDLETKFPYVDMVIKETMRKHTTTPVVAREASEDIELGGYHLPKGTWVWLVLEALQMNPKDFPEPEEFRPERFDENCDEAKTRHPYAFLPFGVGPRSCLGKRFAAQEVKLTVVRLYQNFTFTLSPLTKVPLETQFGIVVRPKHGVCVRVHPRWTRL
notes: cDNA in pYeDP60, expressed in yeast WAT11 (Saccharomyces cerevisiae); microsomal fraction
Km: 4.78 ± 1.22 µM
